Measurements as given in patent US5573924.

How the values were obtained:
[1] = biological target: human CD27 ligand (CD27L), membrane-bound (human); assay: indirect binding assay on CV-1/EBNA cells transfected with cloned CD27L: varying CD27/Fc, then 125I-mouse anti-human IgG; Scatchard analysis, high-affinity component
[2] = biological target: human CD27 ligand (CD27L), membrane-bound (human); assay: indirect binding assay on MP-1 cells (native CD27L): varying CD27/Fc, then 125I-mouse anti-human IgG; Scatchard analysis, high-affinity component
[3] = biological target: human CD27 ligand (CD27L), membrane-bound (human); assay: indirect binding assay on CV-1/EBNA cells transfected with cloned CD27L: varying CD27/Fc, then 125I-mouse anti-human IgG; Scatchard analysis, low-affinity component
[4] = biological target: human CD27 ligand (CD27L), membrane-bound (human); assay: indirect binding assay on MP-1 cells (native CD27L): varying CD27/Fc, then 125I-mouse anti-human IgG; Scatchard analysis, low-affinity component

CD27/Fc fusion protein (from UniProt P26842)
Ka [1]: 2.7e+09 M⁻¹
Ka [2]: 1.58e+09 M⁻¹
Ka [3]: 1.2e+08 M⁻¹
Ka [4]: 1.83e+08 M⁻¹
